Measured values taken from patent US20200317768A1 (published 2020).
Where a chain is given by its changes, count along the chain named.

T1: cynomolgus monkey FcγRIIIaS extracellular domain, His-tagged (cynomolgus monkey, UniProt Q8SPW2 21-206 at identity 1.00))
T1 construct: also called cyno FcγRIIIaS; FcgRIIIaS; not shown: C-terminal His-tag
T1 chain: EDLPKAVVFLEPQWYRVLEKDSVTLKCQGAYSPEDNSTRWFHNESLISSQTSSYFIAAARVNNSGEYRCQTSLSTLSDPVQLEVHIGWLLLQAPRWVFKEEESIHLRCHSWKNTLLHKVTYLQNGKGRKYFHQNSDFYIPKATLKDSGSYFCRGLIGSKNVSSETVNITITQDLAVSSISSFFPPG

T2: cynomolgus monkey FcγRIIa1 extracellular domain, His-tagged (cynomolgus monkey)
T2 construct: also called cyno FcγRIIa1; FcgRIIa1; not shown: C-terminal His-tag
T2 chain: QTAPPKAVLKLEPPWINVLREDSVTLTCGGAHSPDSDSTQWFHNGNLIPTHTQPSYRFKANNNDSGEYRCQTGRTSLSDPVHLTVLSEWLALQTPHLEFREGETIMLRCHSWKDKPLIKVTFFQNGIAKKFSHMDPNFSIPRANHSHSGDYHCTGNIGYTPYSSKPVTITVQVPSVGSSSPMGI

T3: cynomolgus monkey FcγRIIa2 extracellular domain, His-tagged (cynomolgus monkey)
T3 construct: also called cyno FcγRIIa2; FcgRIIa2; not shown: C-terminal His-tag
T3 chain: T2 chain with P95T, T121A, I127K, A128S, K130N, D135N, R142Q

T4: human FcγRIIb extracellular domain, His-tagged (human, UniProt P31994 43-217)
T4 construct: also called FcgRIIb (human); not shown: C-terminal His-tag
T4 sequence: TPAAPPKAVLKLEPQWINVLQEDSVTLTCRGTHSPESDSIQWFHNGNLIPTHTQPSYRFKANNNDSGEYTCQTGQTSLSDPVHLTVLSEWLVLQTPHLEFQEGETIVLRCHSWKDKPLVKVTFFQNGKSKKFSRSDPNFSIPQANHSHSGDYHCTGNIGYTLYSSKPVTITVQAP

T5: human FcγRIIaH extracellular domain, His-tagged (human, UniProt P12318 34-217)
T5 construct: also called human FcγRIIa (type H); FcgRIIaH; not shown: C-terminal His-tag
T5 sequence: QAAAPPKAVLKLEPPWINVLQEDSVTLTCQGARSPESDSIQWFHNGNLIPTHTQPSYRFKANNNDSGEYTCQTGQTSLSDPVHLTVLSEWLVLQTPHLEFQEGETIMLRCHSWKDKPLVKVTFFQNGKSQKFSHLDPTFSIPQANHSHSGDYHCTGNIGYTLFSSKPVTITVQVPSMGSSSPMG

T6: human FcγRIIaR extracellular domain, His-tagged (human, UniProt P12318 34-217)
T6 construct: also called human FcγRIIa (type R); FcgRIIaR; not shown: C-terminal His-tag
T6 chain: T5 sequence with H134R

T7: cynomolgus monkey FcγRIIa3 extracellular domain, His-tagged (cynomolgus monkey)
T7 construct: also called cyno FcγRIIa3; FcgRIIa3; not shown: C-terminal His-tag
T7 chain: T2 chain with P95T, T121A, A128S, H133P, D135N

T8: cynomolgus monkey FcγRIIb extracellular domain, His-tagged (cynomolgus monkey)
T8 construct: also called cyno FcγRIIb; cynoFcγRIIb; not shown: C-terminal His-tag
T8 chain: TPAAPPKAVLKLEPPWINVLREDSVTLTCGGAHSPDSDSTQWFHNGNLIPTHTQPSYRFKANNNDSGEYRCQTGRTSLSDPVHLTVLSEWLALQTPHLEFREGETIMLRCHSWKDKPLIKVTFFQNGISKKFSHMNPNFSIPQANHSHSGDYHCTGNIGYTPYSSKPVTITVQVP

B1: M103205H795-MY455 / M103202L889-SK1 (antibody, human IgG1, kappa)
heavy: QVTLKESGPVLVKPTETLTLTCTVSGIDLSHDDISWVRQAPGKGLEWVGIISYAGSTYYASWAKGRLTISKDTSKNQVVLTMTNMDPVDTATYYCARGVPAYSHGGDLWGQGTLVTVSSASTKGPSVFPLAPSSKSTSGGTAALGCLVKDYFPEPVTVSWNSGALTSGVHTFPAVLQSSGLYSLSSVVTVPSSSLGTQTYICNVNHKPSNTKVDKKVEPKSCDKTHTCPPCPATELLTGPSVFLFPPKPKDTLMISRTPEVTCVVVDVSDEDPEVKFNWYVDGVEVHNAKTKPREEQYNSTYRVVSVLTVLHQDWLNGKEYKCKVSNKALPKPIEKTISKAKGQPREPQVYTLPPSREEMTKNQVSLTCLVKGFYPSDIAVEWESNGQPENNYKTTPPVLDSDGSFFLYSKLTVDKSRWQQGNVFSCSVMHEALHNHYTQKSLSLSP
light: DIVMTQSPATLSLSPGERATLSCTSSQSVYHANWLSWFQQKPGQPPKLLIYWASTLAYGVPSRFSGSGSGTDFTLTISSLQPEDAATYYCAGGYGGGRYAFGQGTKVEIKRTVAAPSVFIFPPSDEQLKSGTASVVCLLNNFYPREAKVQWKVDNALQSGNSQESVTEQDSKDSTYSLSSTLTLSKADYEKHKVYACEVTHQGLSSPVTKSFNRGEC
notes: substitution positions are EU numbers
B2: M103205H795-MY458 / M103202L889-SK1 (antibody, human IgG1, kappa)
heavy: B1 heavy with T234Y
light: B1 light
notes: as for B1
B3: M103205H795-MY456 / M103202L889-SK1 (antibody, human IgG1, kappa)
heavy: B1 heavy with T234V
light: B1 light
notes: as for B1
B4: M103205H795-MY457 / M103202L889-SK1 (antibody, human IgG1, kappa)
heavy: B1 heavy with T234W
light: B1 light
notes: as for B1

Each binder was assayed against T9, human FcγRIIIaV extracellular domain, His-tagged (human, UniProt P08637 17-208) (assay: SPR (BIACORE), 25 C, antibody captured, FcgR as analyte; KD of SG1 divided by KD of variant;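 note: relative to parent M103205H795-SG1 carrying the SG1 human heavy chain constant region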).
T9 construct: also called human FcγRIIIa (V158); FcgRIIIaV; not shown: C-terminal His-tag
Description: (§1) The kinetic analysis of interactions between these antibodies and FcγR was carried out using BIACORE® T200 or BIACORE® 4000 (GE Healthcare). HBS-EP+ (GE Healthcare) was used as the running buffer, and the measurement temperature was set to 25° C. A chip produced by immobilizing Protein A. Protein A/G or mouse anti-human IgG kappa light chain (BD Biosciences) onto a Series S Sensor Chip CM4 or CM5 (GE Healthcare) by the amine-coupling method was used. […] After the measurement, the antibody captured on the chip was washed off by allowing reaction with 10 mM glycine-HCl, pH1.5 and 25 mM NaOH so that the chip was regenerated and used repeatedly. The sensorgrams obtained as measurement results were analyzed by the 1:1 Langmuir binding model using the BIACORE® Evaluation Software to calculate the binding rate constant ka (L/mol/s) and dissociation rate constant kd (l/s), and the dissociation constant KD (mol/L) was calculated from these values. […] Regarding such interactions, KD values were calculated using the following 1:1 binding model described in BIACORE® T100 Software Handbook BR1006-48 Edition AE.

T9 sequence (P08637 17-208 F176V): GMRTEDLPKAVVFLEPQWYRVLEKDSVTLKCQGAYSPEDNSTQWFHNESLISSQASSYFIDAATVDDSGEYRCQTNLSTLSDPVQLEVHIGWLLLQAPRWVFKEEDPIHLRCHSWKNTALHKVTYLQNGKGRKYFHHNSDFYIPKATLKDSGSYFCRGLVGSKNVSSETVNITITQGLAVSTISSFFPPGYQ

KD fold (SG1 = 1) [fold]	Binder
0.1	B1
0.2	B2
0.2	B3
0.2	B4

Target: T1, cynomolgus monkey FcγRIIIaS …
Test: as above
Description: as §1

KD fold (SG1 = 1) [fold]	Binder
0.1	B1
0.3	B2
0.2	B3
0.3	B4

Target: T2, cynomolgus monkey FcγRIIa1 …
Test: as above
Description: as §1

KD fold (SG1 = 1) [fold]	Binder
1	B1
1.8	B2
1.7	B3
4	B4

Target: T3, cynomolgus monkey FcγRIIa2 …
Test: as above
Description: as §1

KD fold (SG1 = 1) [fold]	Binder
1.8	B1
3.2	B2
3	B3
6.1	B4

What follows are binders tested against T4, human FcγRIIb extracellular domain, … in the same assay as above.
Description: as §1

KD fold (SG1 = 1) [fold]	Binder
2.1	B1
4.6	B2
4.2	B3
13.9	B4

These binders were tested against T5, human FcγRIIaH extracellular domain, … in the same assay as above.
Description: as §1

KD fold (SG1 = 1) [fold]	Binder
2.2	B1
4.3	B2
4.1	B3
5.3	B4

Target: T6, human FcγRIIaR extracellular domain, …
Test: as above
Description: as §1

KD fold (SG1 = 1) [fold]	Binder
2.4	B1
6.5	B2
3.8	B3
15.1	B4

Target: T7, cynomolgus monkey FcγRIIa3 …
Test: as above
Description: as §1

KD fold (SG1 = 1) [fold]	Binder
3.1	B1
5.7	B2
5	B3
14.2	B4

Target: T8, cynomolgus monkey FcγRIIb extracellular …
Test: as above
Description: as §1

KD fold (SG1 = 1) [fold]	Binder
2	B1
4.2	B2
3.5	B3
9	B4
